The series is described as follows: label from the status in PepcDB records.
“MSQQFPDWQPQGLENNLLKLVPLAKADFDTLFEVASDPLIWEQHPTKDRYKKEVFQLFFDGALGGNTAFIIIDKATGRIIGSTRYYDYKPEQASIAIGYTFLNRDYWGGRYNRSAKKLLLDYAFHYVDTVYFHIGANNLRSQKAILNIGATKVGEVDFDYYGKKVLHYEYAITKADWLHTLKQQL”: the protein production entry is listed as “failed”.

Take “MSQRLILFSRYPEPGRSKTRLIPALGPEGAADLQRQLTEWTVFTAHCWQARSPQTEVLIATSGGTSEAWQQWLGAVEVQPQAEGDLGDRLHQAFQDSWQVGCDRTVIIGSDCPQIEPHHLDEAFAVLQQADVVIGPASDGGYWLIGLSQPQPQLFQNIDWGSDRVLVQTLEAAQVADLQVAQLESLSDLDRPEDLNLWQPQPQLSVIITTLNEAANLPQTLALIGDAPVETLVVDGGSQDATVAIAQAWGAKVIHSPAGRGRQFNQGAAAAHGNILLFLHGDTRLPPRFWEHVLQTLQPPQVVAGAFQLQIDSPDWRLRWIERGVRWRSHWLQQPYGDQALFLSRDRWRAIGGFSTGPLLEDYRFVRQLRRQGTIAIASAAVMTSARRWQRRGVLQTTLLNQLILLAHHCGVSDQQLARWYR”: the protein production result is “failed”.

For the sequence “MSQSLIAALQNPALFPHPVESFQVIETHISWVLLTGPYAYKFKKPMNFGFLDFTTLALREHFCQEELRLNKRLTDDMYLEVLPITGTAQAPQLGGDGDVIEYALKMKQFSQDGLLSTLQANGELTTAHIDELARQIADFHLDSPHVTAESELGSPDSVMAPVVQNFEQIRPLISEKSDLEQLDALQAWAESSFERLKPLLAQRKADGFIRECHGDIHLGNATVIDGKVVLFDCIEFNEPFRKTDVYADIGFLAMDLEDRGLKSLSRRLVSQYLEVTGDYVGLELLNFYKAYRAMVRAKVALFSQPADADGVQRAATLRQYRNYANLAESYSAIPSRFLTITHGVSAVGKSHVAMRLVESLGAIRLRSDIERKRLFAEGGEDLYGDEASSATYARLHELAGKTLRAGFSVVIDATYLKREQRDAAAKVAENTGVPFLILDCEAPQAVIASWLAQRQAQNNDPSDATLQVIEAQQASRELLSADEVLCSKKVATNIGSDLDSLVDNLRQRLPGLLEHHHHHH”, the protein production entry is “not failed”.

With “MSRASVTIGARRNGAIKAAAHARIRPVANSSCLAISRQMQHRYTMFEPKPQNPALAAALIFAATAFIAGTTLLAKALGTGALGPALPALQISHGRFLFALAVILSIVAATRPRLSRPHWGLHLGRTSFGWAGVTLMFAAVAYIPMADATAIAFLNPVFGMLLAIPLLGERVGPWRWGAAVIALVGALILLRPTPGSFQPAALLALAAAAVMGMELIFIKKLAGRERPIQILLVNNAMGLAIASLAVWPVWQAPLPAQWAALAGIGLLMACAQICFVNGMARADASFVAPFSYGTLVFAALYDLAVFQVWPDAISLGGAAIILTGALTLAWREGRVRRP”, the protein production entry is reported as “failed”.

On to “MSRELKLRIVSAIVMAAVILAATWYGGILFRIVAGLLAILIYYEWSTITRMSETNSTGNAWGWFAVAVIAGNTIFGESSLDLPLLSGFTLTAALFPVLRGKNWWLVGGIFYAGLSGISLAAIRGDELAGFASILFIFAVVWSTDILAYFVGRAIGGPKLAPSISPGKTWSGAVGGAVAAVIGGAAVSMAYHGRISLLLVGLALVLSVFSQIGDLFESFVKRRFQVKDSSHLIPGHGGFMDRVDGLVFACFTVFLIAFVHAAATGDVPGSGGGLLPGF”, for which the protein production entry was “failed”.

On to “MSRGGFCQTYFAVDECQSPPVPYVVQKLHDNEQLLDSFQQKAQYIEQLSQNSQLPTLLAYFRDQDNYYFVQEFIAGASLAQVVQEEGAFHETQVWQLLTNLLPILKLMSDRQLIHGDIKPENIIRQLTPDSTNLVLVDFGHVQIVSRTDQITDVQGVGSPEYAAPEQITGQAVFASDLYSLGVTCIHLLTLVSPFDLFDIANDCWVWQQYLTTKISDRLTKILNKLIQKSVHQRFQSADEVMQVMGIEGKILHYPPPPSPWQCLHTLTGYSTNSLAISPDGNKLASGGDDKIIRLWELNTQKLLACFSGHSQAVTSVSFSPQGEILATASDDKTIKLWHLPTSSEVFTLNGHTNPVKSVSFSPNGQILASGSWDKQVKLWDVTTGKEIYALKAHQLQVSAVAFSPQGEILASASFDRTIRLWQITQNHPRYTLIKTLSGHTRAVLAIAFSPDGKILATGSDDNTIKLWDINTGQLIATLLGHSWSVVAVTFTADNKTLISASWDKTIKLWKVSTTEEIVTLASHLDSVCAVAVNPVTQVIASSSRDKTIKLWQLVIQQN”, for which the protein production entry is “failed”.

Take “MSRISVVIPAYNEASDLPQTIQGIRDLSLECEVIVVDDGSVDDTKKIAERLADITVALPVNQGKGQALMEGWKRAEGTHIVMLDADLGSTSSEMAHLLPPLLTNEADLVIGMLPTHSSKKGFGLVKKRAQQYIAKRTGAFLTAPLSGQRAFHRRWLPSLLEENVQGFGVETQMLLHFLLRGAVVKEIPTLMAHRYTGKTISGFIHRFQQWIDIERALRGSNTLEHHHHHH”: the protein production entry is listed as “not failed”.

For the sequence “MSRMRVLRLRLYGVVFLAVLALLLSLSVAVYQQVFTPAVRIKLEADSLGNQLDPRADVKLRGLLVGEVRAVHADGTKATLDIALKPEYVASIPSDAHARLLPKTLFGEKYVDLVAPARSSARPIRAGDVITQDRTRVGIELQQLMNDLLPLLRTVQPGKLNATLSAFATALEGRGDRIGDNLTRVEDYLHRLNPHLPSLTEDFARLADVAEVYGDAAPDLMEILRNTVTTSRTLVEQRDRLASALTTTATAAGTADDFLDANGDRLITLGRVSRPTLDLFARYSPEYPCLFAGLVREEQASEQAFRGGKMHITLEVVRQQGAYEPGEYPRYDDRSGPNCRDLPHPPVPAPGVHLNDGSTKGSASGGPGGVSATRAEQRSVGSLVAPVLGVPADQVPPVATLLFGPMARGTAVSVA”, the protein production result is “failed”.

As for “MSRPDQAARRRAIAAELHVSPTFDARDEAERRIGFVADYLRTAGLRACVLGISGGIDSSTAGRLAQLAVERLRASGYDARFVAMRLPYGAQHDEADARRALAFVRADETLTVDVKPAADAMLAALAAGGLAYLDHAQQDFVLGNIKARERMIAQYAVAGARNGVVIGTDHAAESVMGFFTKFGDGGADVLPLAGLTKRRVRALARMLGADEPLVLKTPTADLETLRPQRPDEHAYGITYEQIDDFLEGKPMDDAVAETVLRFYDATRHKRALPYTMFDWPGHPA”, the protein production result was “not failed”.

As for “MSRPEGHTLRRRLAGVVFVLVPALLIWLAVAVYDKKFTDSDPVVVETGSAGNQMHPGAEVKLRGVVVGEVRAIDATGDGARLTLAMKPGALDDVPSDVRAQMLPTTLFGERFVALVPPANPSPEPLAAGAVVPQDRSANAIELQQVLDDVLPMLTAVQPQKLSATLSAVSQALEGRGERLGDTLTLLDEHLAEFNPNLPALNRDLKELVKVSHVYADAAPDVITALTDFTTTSGTLAEQEADLAATLGATTRTAEDVTAFLHKNKDNIIRLGDTSRPTLELLAEYSPAFPCTLRTLAEFVPAMDKALGKGTDRPGIHVDVTSVASRGAYRPGRDTPVYDSGGGPRCPSVPYLGALPRPTARTAAPAAEQDLGPANSPQENDLVNELLAPAAGKSPGDLPDWSSLLVGPVYRGTEVTLGLEHHHHHH”, the protein production result is recorded as “failed”.

As for “MSRPPVFPPPQFPPPRPRPFQRTPPAIFPPILGLLALGLGLRRAAEIWGLPAGLAEAVLGATTGLGAFAVAAYAAKVAQRPGVVIEDLRVLPGRAGLAALVLGLLVLAAVLVPYGPAAARAVLVAGLGLQTILAVTVAALLLSGPKEGRVVTPAFHLHFVGFIIGGLTAAPVGWPGLGTVLLAVCAPVAAAIWIASLVQFLRRVPPPPLRPLLAIHLAPAALLGLVAGQQELPLVAQLCAAAGGVLLLAFLASARWLLAGGFSPLWGALTFPLAAYAGLLLVVWPQAGAVLLAAAALVIPPIAAKILQEWAKGRLAVRTNAAQA”, the protein production result is listed as “failed”.

As for “MSRQQARGALGRAWWLQLALALLPLILVEFFLGELQPLPHGLAMPLFIAALLSMFVNLPLFGAYKRGLIATQKALDTAEEAAAWTRLAQVRRKALFGASLPAWIGVPGVFAGLNGVALILLGVTSLVLFWLYRIPRQLG”, the protein production entry is “failed”.

Consider “MSRRAPMFKPLPITLQRGALRLEPLVEADIPELVSLAEANREALQYMDGPTRPDWYRQSLAEQREGRALPLAVRLGVQLVGTTRFAEFLPALPACEIGWTWLDQAQHGSGLNRMIKYLMLKHAFDNLRMVRVQLSTAASNLRAQGAIDKLGAQREGVLRNHRRLAGGRLDDTFVYSITDHEWPQVKAALEASFTG”, for which the protein production result was “not failed”.

As for “MSRRSNRTINLPAPYLKRIWLDPSQVHDREAYPFCLPIFPDDFELSFDAAITIIVGENGTGKSTILEGIAALAGYDDAGGGKGYMPVDHSDAREKMGGQLSKALRASWLPKITNGWFFRAESFFSVARYLDKAARDAGQVGPDFLSHSHGEGFLRFFEERCQRQGIFIFDEPESALSPARQIEFLKLLRRMDDSRICQVIMATHSPMLMAYPNAKLLRLGKYGLEPVTVEETDHYRLMREFCDDPRGFVEATLAELEHHHHHH”, the protein production entry is on record as “not failed”.

Consider “MSRSGQPPDLKKYMDKKLQIKLNANRMVVGTLRGFDQFMNLVVDNTVEVNGDDKTDIGMVVIRGNSIVTVEALEPVGRS”, for which the protein production entry is listed as “failed”.

On to “MSRSLGIPVKLLHEASGHIVTVELKSGELYRGSMIECEDNWNCQLEDITYTAKDGKVSQLEHVFIRGSKVRFMVIPDILKHAPMFKRLDARIKGKSSSLGVGRGRGAMRGKPAAGPGRGTGGRGAVPPVRR”, for which the protein production result is listed as “failed”.

Take “MSRSVLQPSQQKLAEKLTILNDRGVGMLTRLYNIKKACGDPKAKPSYLIDKNLESAVKFIVRKFPAVE”: the protein production result is on record as “failed”.

Regarding “MSRTVMCRKYHEELPGLDRPPYPGAKGEDIYNNVSRKAWDEWQKHQTMLINERRLNMMNAEDRKFLQQEMDKFLSGEDYAKADGYVPPSA”, the protein production entry is recorded as “not failed”.

With “MSRVSLPHDAKAGPTKPEVRAVLASKLALTGSDHFAEVGSCTGAVTITAARRAGRVTALERKGNRLDVTRKNLAANDVDADVELREAEAPEGLPDDADVLFLGGSRNYEAILDHAVETGVDRIVMNVSRLEVAGAATEAFRERDILEEVVQFQVSHGYELAGATSFNSENPVYMLVGSASEDVAADGGSPTETEATDGGQR”, the protein production entry was “failed”.

For the sequence “MSSAIRKAAKGGQCTPNIAGVCNDNPETVVLCRFPGETHGAGLKSGGLGAGFGCGCRRGAIDGRGAGLSREDKEFYMRRSQLRTIRRLEALGVVGVKGRLK”, the protein production result was “failed”.

Regarding “MSSEEDYFDELEYDLADEVNEEKEDIQTKKLTTVNCQTEKFNPFEILPESIELFRTLALISPDRLSLSETAQILPKIVDLKRILQQQEIDFIKLLPFFNEIIPLIKSNIKLMHNFLISLYSRRFPELSSLIPSPLQYSKVISILENENYSKNESDELFFHLENKAKLTREQILVLTMSMKTSFKNKEPLDIKTRTQILEANSILENLWKLQEDIGQYIASKISIIAPNVCFLVGPEIAAQLIAHAGGVLEFSRIPSCNIASIGKNKHLSHELHTLESGVRQEGYLFASDMIQKFPVSVHKQMLRMLCAKVSLAARVDAGQKNGDRNTVLAHKWKAELSKKARKLSEAPSISETKALPIPEDQPKKKRAGRKFRKYKEKFRLSHVRQLQNRMEFGKQEQTVLDSYGEEVGLGMSNTSLQQAVGATSGSRRSAGNQAKLTKVMKHRISEANQQADEFLISLGHNTEQPNLSPEMVQMHKKQHTNPEEETNWFSGHG”, the protein production entry is “failed”.

Turning to “MSSEGRNHNWDYAAIGTPEDFLASWSASRGNLRRFFEDHAAAPINDAAQRQAGEAAATQAVAAIYGMELNEFNAGVDAVAGAIESAGAIHVSIPDPDVPQDVGAAAFFDVDNTLIQGSSLIVFAQGLFRKKFFTIKEILPVVWKQVKFKLTGSENAEDVSRGREQALEFIKGRPVQELVDLCEEIVDQRMADKMWPGTKQLADMHIAAGHQVWLVSATPVQLAQILAQRLGFTGAIGTVAEAKDGVFTGRLVGDILHGPGKRHAVAALASIEQLDLTRCTAYSDSINDLPMLSMVGTAVAVNPDSKLRKEAETRGWDVRDFRSIRKATREYGIPALVTAAFSVAGWRLRRRWRKQ”, the protein production entry is on record as “failed”.

The values above are taken from a protein production outcome set (Wang et al. 2014).
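Also: failed if final PepcDB status was selected cloned or expressed and not failed if soluble or beyond.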
